Experimental findings from patent US20090324566A1 (published 2009) are described below.

Assay [1] has as its target T1, MAGE-A4 peptide on HLA-A*24:02 (human).
T1 peptide: NYKRCFPVI
The assay is described as follows: multimer staining.

For assay [2], the target named is T2, MAGE-A4 peptide on HLA-A*02:01 (human).
T2 peptide: NYKRCFPVI
The experiment in a line: killing. As to the method: (§1) The T2 cells, the T2-A24 cells, and T2-A2 cells prepared by transfecting HLA-A0201 gene into T2 cells were washed 3 times with RPMI 1640 medium, and the washed cells were suspended in RPMI 1640 medium so as to have a density of 5×10⁶ cells/mL. P143 or P715 was added to 1 mL each of the above-mentioned cell suspensions so as to have a final concentration of 10 μM, and the mixture was allowed to stand at room temperature for 15 minutes. Thereafter, 1 mL each of RPMI 1640 medium containing 10% FCS was added thereto, and the mixture was incubated at 37° C. for 1 hour. […]
(§2) The ms69 cells, the RNA-transduced ms69 cells, the #2-28 cells, the CD8 positive cells, and the RNA-transduced CD8 cells were washed twice with RPMI 1640 medium, and the washed cells were suspended in RPMI 1640 medium containing 10% FCS so as to have a density of 2×10⁶ cells/mL, 1×10⁶ cells/mL, 5×10⁵ cells/mL, 2.5×10⁵ cells/mL, 1.25×10⁵ cells/mL, and 6.25×10⁴ cells/mL (effector cells), respectively, and a 100 μL portion thereof was put in each well of a 96-well V-bottom plate. […] The mixture was reacted at 37° C. for 4 hours, and thereafter the supernatants were collected by centrifugation, and an amount of ⁵¹Cr released to 100 μL of the supernatant was determined by using a gamma counter. The specific cytotoxic activity was calculated from the measured value of radioactivity according to the following formula.

The target of assay [3] is T3, SAGE peptide on HLA-A*24:02 (human).
T3 peptide: LYATVIHDI
The assay is described as follows: killing. As to the method:
as §1, §2

B1: HLA-A24-restricted, MAGE-A4 143-151-specific TCR of CTL clone #2-28 (SEQ ID NOs 1 and 2) (TCR, V domains shown)
Valpha: AQSVSQHNHHVILSEAASLELGCNYSYGGTVNLFWYVQYPGQHLQLLLKYFSGDPLVKGIKGFEAEFIKSKFSFNLRKPSVQWSDTAEYFCAGRGGGNKLTFGTGTQLKVEL
Vbeta: DTGVSQNPRHKITKRGQNVTFRCDPISEHNRLYWYRQTLGQGPEFLTYFQNEAQLEKSRLLSDRFSAERPKGSFSTLEIQRTEQGDSAMYLCASSLAQGAGETQYFGPGTRLLVL
Regarding B1, the binding result in assay [1] is recorded as “recognises”; in assay [2], “no recognition”; in assay [3], “no recognition”.
